One block for each binder: values may come before it.
Tests used:
Cμ2 = target: T1, Cμ2 (UniProt P84092 158-435); assay: ITC
T1 sequence (looked up): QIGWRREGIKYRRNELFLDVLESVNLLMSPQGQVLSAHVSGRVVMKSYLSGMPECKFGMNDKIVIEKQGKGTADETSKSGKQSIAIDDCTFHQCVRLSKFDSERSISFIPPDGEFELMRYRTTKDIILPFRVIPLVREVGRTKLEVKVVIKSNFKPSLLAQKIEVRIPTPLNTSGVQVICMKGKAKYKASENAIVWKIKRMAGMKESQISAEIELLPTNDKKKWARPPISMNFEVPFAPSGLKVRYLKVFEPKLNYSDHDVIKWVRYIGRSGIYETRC

recombinant AP2 core = recombinant AP2 core (UniProt P18484 1-621; P63010 1-591; P84092 1-435; P62743 1-142); assay: BLI
AP2 α-appendage = AP2 α-appendage (UniProt P17427 702-938); assay: ITC
AP2 α-appendage, sequence (P17427 702-938): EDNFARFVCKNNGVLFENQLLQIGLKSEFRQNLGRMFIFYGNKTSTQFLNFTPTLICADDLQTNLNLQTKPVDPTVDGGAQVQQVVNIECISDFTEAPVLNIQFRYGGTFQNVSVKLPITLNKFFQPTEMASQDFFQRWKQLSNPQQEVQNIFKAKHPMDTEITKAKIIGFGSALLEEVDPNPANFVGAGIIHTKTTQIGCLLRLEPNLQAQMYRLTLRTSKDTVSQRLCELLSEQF

Kd (Cμ2): ~25 µM
B1: FCHO2N1+N2 (domain or fragment, human, UniProt Q0JRZ9 314-357, looked up)
chain: NIPDVDEEGYSIKPETNQNDTKENHFYSSSDSDSEDEEPKKYRI

Kd (recombinant AP2 core): 9.8 ± 1.5 µM
B2: FCHO2 linker (residues 314-444) (domain or fragment)
chain: NIPDVDEEGYSIKPETNQNDTKENHFYSSSDSDSEDEEPKKYRIEIKPMHPNNSHHTMASLDELKVSIGNITLSPAISRHSPVQMNRNLSNEELTKSKPSAPPNEKGTSDLLAWDPLFGPSLDSSSSSSLT

Kd (AP2 α-appendage): ~50 µM
B3: FCHO1 C peptide (residues 426-448 SEEQVSKNLFGPPLESAFDHEH) (peptide)
peptide: SEEQVSKNLFGPPLESAFDHEH

Kd (recombinant AP2 core): 8.5 ± 2.2 µM
B4: FCHO1 linker (residues 316-444) (domain or fragment)
chain: TCPEVDEEGFTVRPDVTQNSTAEPSRFSSSDSDFDDEEPRKFYVHIKPAPARAPACSPEAAAAQLRATAGSLILPPGPGGTMKRHSSRDAAGKPQRPRSAPRTSSCAERLQSEEQVSKNLFGPPLESAF

Reference: paper doi:10.1101/2022.04.02.486817 (bioRxiv, 2022)
